The text below walks through data of patent publication US5612190.

This experiment addresses group I phospholipase A2. As to the kind of experiment: 125I-PLA2-I binding in COS7 culture supernatant, polyethylene glycol coprecipitation.

B1: secretion type PLA2-I receptor protein (receptor)
chain: ETAAWAVTPERLREWQDKGIFIIQSENLEKCIQASKSTLTLENCKPPNKYMLWKWVSNHRLFNIGGSGCLGLNVSSPEQPLSIYECDSTHVSLKWHCNKKTITGPLQYLVQVKQDNTLVASRKYLHKWVSYMSGGGGICDYLHKDLYTIKGNAHGTPCMFPFQYNQQWHHECTREGREDNLLWCATTSRYERDEKWGFCPDPTSTEVGCDAVWEKDLHSRICYQFNLLSSLSWSEAHSSCQMQGAALLSIADETEENFVRKHLGSEAVEVWMGLNQLDEDAGWQWSDRTPLNYLNWKPEINFEPFVEYHCGTFNAFMPKAWKSRDCESTLPYVCKKYLNPTDHGVVEKDAWKYYATHCEPGWNPHNRNCYKLQKEKKTWNEALQSCQSNNSVLTDITSLAEVEFLVTLLGDENASETWIGLSSHKIPVSFEWSNGSSVTFTNWHTLEPHIFPNRSQLCVSAEQSEGHWKVKNCEETLFYLCKKTGLVLSDTESGCQKGWERHGKFCYKIDTVLRSFDHASSGYYCPPALITITSRFEQAFITSLISSVVKTKDTYFWIALQDQNNTGEYTWKTAGQQLEPVKYTHWNTRQPRYSGGCVVMRGRSHPGRWEVRDCRHFKAMSLCKQPVENREKTKQEEGWPFHPCYLDWESEPGLASCFKVFHSEKVLMKRTWRQAEEFCEEFGAHLASFAHIEEENFVNELLHSKFNRTEERQFWIGFNKRNPLNAGSWEWSDGTPVVSSFLDNSYFGEDARNCAVYKANKTLLPSYCGSKREWICKIPRDVRPKVPPWYQYDAPWLFYQDAEYLFHISASEWSSFEFVCGWLRSDILTIHSAHEQEFIHSKIRALSKYGVNWWIGLREERASDEFRWRDGSPVIYQNWDKGKERSMGLNESQRCGFISSITGLWASEECSISMPSICKRKKVWVIEKKKDIPKQHGTCPKGWLYFDYKCLLLKIPEGPSDWKNWTSAQDFCVEEGGTLVAIENEVEQAFITMNLFGHTTNVWIGLQDDDYEKWLNGRPVSYSNWSPFDTKNIPNHNTTEVQKRIPLCGLLSNNPNFHFTGKWYFEDCREGYGFVCEKMQDASGHSINTSDMYPIPNTLEYGNRTYKIINANMTWYTALKTCLMHGAELASITDQYHQSFLTVILNRVGYAHWIGLFTEDNGLSFDWSDGTKSSFTFWKDDESSFLGDCVFADTSGRWSSTACESYLQGAICQVPTETRLSGRLELCSETSIPWIKFKSNCYSFSTVLESTSFEAAHEFCKKKGSNLLTIKDEAENSFLLEELLAFRSSVQMIWLNAQFDGDNETIKWFDGTPTDQSNWGIRKPEVYHFKPHLCVALRIPEGVWQLSSCQDKKGFICKMEADIHTVKKHPGK
One may read the Kd as the free concentration of one partner at which half of the binding sites on the other are occupied at equilibrium, for simple one-to-one binding. High values mean lower affinity, low ones higher affinity. As to B1, the Kd was determined as 0.8 nM.
